# According to the supplement of paper PMC12338614:
# ± gives the uncertainty stated by the source.
# B1: library; numbered along this chain (parent)
# chain: MEVVDPQQLGMFTEGELMSVGMDTFIHRIDSTEVIYQPRRKRAKLIGKYLMGDLLGEGSYGKVKEVLDSETLCRRAVKILKKKKLRRIPNGEANVKKEIQLLRRLRHKNVIQLVDVLYNEEKQKMYMVMEYCVCGMQEMLDSVPEKRFPVCQAHGYFCQLIDGLEYLHSQGIVHKDIKPGNLLLTTGGTLKISDLGVAEALHPFAADDTCRTSQGSPAFQPPEIANGLDTFSGFKVDIWSAGVTLYNITTGLYPFEGDNIYKLFENIGKGSYAIPGDCGPPLSDLLKGMLEYEPAKRFSIRQIRQHSWFRKKHPPAEAPVPIPPSPDTKDRWRSMTVVPYLEDLHGADEDEDLFDIEDDIIYTQDFTVPGQVPEEEASHNGQRRGLPKAVCMNGTEAAQLSTKSRAEGRAPNPARKACSASSKIRRLSACKQQ
# Variants of: B1
# Assay: STK11 functional score (HeLa growth suppression), rescaled enrichment; synonymous median = 1, nonsense median = 0 (normalised score)
# Details: with HeLa; variant type: missense
# In short: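 In HeLa, Bxb1 integrated POPCode codon-randomised libraries of codon-optimised STK11 at an AAVS1 landing pad; three regions were each transfected three times. Integrants, marked as BFP-negative and mCherry-positive, were FACS-sorted 4–5 days after electroporation and expanded for about two weeks before tiled gDNA amplicons were sequenced on NextSeq (~2 million reads per tile). Each functional score is a post/pre-selection log ratio corrected to wild type, rescaled to the synonymous and nonsense medians, and merged across codons and replicate transfections, with error estimated by bootstrapping.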
row,Variant,STK11 functional score
1,MEVVDPQQLGMFTEGELMSVGMDTFIHRIDSTEVIYQPRRKRAKLIGKYLMGDLLGEGSYGKVKEVLDSETLCRRAVKILKKKKLRRIPNGEANVKKEIQLLRRLRHKNVIQLVDVLYNEEKQKMYMVMEYCVCGMQEMLDSVPEKRFPVCQAHGYFCQLIDGLEYLHSQGIVHKDIKPGNLLLTTGGTLKISDLGVAEALHPFAADDTCRTSQGSPAFQPPEIANGLDTFSGFKVDIWSAGVTLYNITTGLYPFEGDNIYKLFENIGKGSYAIPGDCGPPLSDLLKGMLEYEPAKRFSIRQIRQHSWFRKKHPPAEAPVPIPPSPDTKDRWRSMTVVPYLEDLHGADEDEDLFDIEDDIIYTQDFTVPGQVPEEEASHNGQRRGLPKAVCMNGTEAAQLSTKNRAEGRAPNPARKACSASSKIRRLSACKQQ [S404N],1.52 ± 0.28
2,MEVVDPQQLGMFTEGELMSVGMDTFIHRIDSTEVIYQPRRKRAKLIGKYLMGDLLGEGSYGKVKEVLDSETLCRRAVKILKKKKLRRIPNGEANVKKEIQLLRRLRHKNVIQLVDVLYNEEKQKMYMVMEYCVCGMQEMLDSVPEKRFPVCQAHGYFCQLIDGLEYLHSQGIVHKDIKPGNLLLTTGGTLKISDLGVAEALHPFAADDTCRTSQGSPAFQPPEIANGLDTFSGFKVDIWSAGVTLYNITTGLYPFEGDNIYKLFENIGKGSYAIPGDCGPPLSDLLKGMLEYEPAKRFSIRQIRQHSWFRKKHPPAEAPVPIPPSPDTKDRWRSMTVVPYLEDLHGADEDEDLFDIEDDIIYTQDFKVPGQVPEEEASHNGQRRGLPKAVCMNGTEAAQLSTKSRAEGRAPNPARKACSASSKIRRLSACKQQ [T367K],0.53 ± 0.42
3,MEVVDPQQLGMFTEGELMSVGMDTFIHRIDSTEVIYQPRRKRAKLIGKYLMGDLLGEGSYGKVKEVLDSETLCRRAVKILKKKKLRRIPNGEANVKKEIQLLRRLRHKNVIQLVDVLYNEEKQKMYMVMYYCVCGMQEMLDSVPEKRFPVCQAHGYFCQLIDGLEYLHSQGIVHKDIKPGNLLLTTGGTLKISDLGVAEALHPFAADDTCRTSQGSPAFQPPEIANGLDTFSGFKVDIWSAGVTLYNITTGLYPFEGDNIYKLFENIGKGSYAIPGDCGPPLSDLLKGMLEYEPAKRFSIRQIRQHSWFRKKHPPAEAPVPIPPSPDTKDRWRSMTVVPYLEDLHGADEDEDLFDIEDDIIYTQDFTVPGQVPEEEASHNGQRRGLPKAVCMNGTEAAQLSTKSRAEGRAPNPARKACSASSKIRRLSACKQQ [E130Y],0.104 ± 0.12
4,MEVVDPQQLGMFTEGELMSVGMDTFIHRIDSTEVIYQPRRKRAKLIGKYLMGDLLGEGSYGKVKEVLDSETLCRRAVKILKKKKLRRIPNGEANVKKEIQLLRRLRHKNVIQLVDVLYNEEKQKMYMVMEYCVCGMQEMLDSVPEKRFPVCQAHGYFCQLIDGLEYLHSQGIVHKDIKPGNLLLTTGGTLKISDLGVAEALHPFAADDTCRTSQGSPAFQPPEIANGLDTFSGFKVDIWSAGVTLYNITTGLYPFEGDNIYKLFENIGKGSYAIPGDCGPPLSDLLKGMLEYEPAKRFSIRQIRQHSWFRKKHPPAEAPVPIPPSPDTKDRWRSMTVVPYLEDLHGADEDEDLFDIEDDIIYTQDFTVPGQVPEEEASHNGQRRGLPKAVCMIGTEAAQLSTKSRAEGRAPNPARKACSASSKIRRLSACKQQ [N393I],1.39 ± 0.41
5,MEVVDPQQLGMFTEGELMSVGMDTFIHRIDSTEVIYQPRRKRAKLIGKYLMGDLLGEGSYGKVKEVLDSETLCRRAVKILKKKKLRRIPNGEANVKKEIQLLRRLRHKNVIQLVDVLYNEEKQKMYMVMEYCVCGMQEMLDSVPEKRFPVCQAHGYFCQLIDGLEYLHSQGIVHKDIKPGNLLLTTGGTLKISDLGVAEALHPFAADDTCRTSQGSPAFQPPEIANGLDTFSGFKVDIWSAGVTLYNITTGLYPFEGDNIYKLFENIGKGSYAIPGDCGPPLSDLLKGMLEYEPAKRFSIRQIRQHSWFRGKHPPAEAPVPIPPSPDTKDRWRSMTVVPYLEDLHGADEDEDLFDIEDDIIYTQDFTVPGQVPEEEASHNGQRRGLPKAVCMNGTEAAQLSTKSRAEGRAPNPARKACSASSKIRRLSACKQQ [K311G],1.35 ± 0.23
6,MEVVDPQQLGMFTEGELMSVGMDTFIHRIDSTEVIYQPRRKRAKLIGKYLMGDLLGEGSYGKVKEVLDSETLCRRAVKILKKKKLRRIPNGEANVKKEIQLLSRLRHKNVIQLVDVLYNEEKQKMYMVMEYCVCGMQEMLDSVPEKRFPVCQAHGYFCQLIDGLEYLHSQGIVHKDIKPGNLLLTTGGTLKISDLGVAEALHPFAADDTCRTSQGSPAFQPPEIANGLDTFSGFKVDIWSAGVTLYNITTGLYPFEGDNIYKLFENIGKGSYAIPGDCGPPLSDLLKGMLEYEPAKRFSIRQIRQHSWFRKKHPPAEAPVPIPPSPDTKDRWRSMTVVPYLEDLHGADEDEDLFDIEDDIIYTQDFTVPGQVPEEEASHNGQRRGLPKAVCMNGTEAAQLSTKSRAEGRAPNPARKACSASSKIRRLSACKQQ [R103S],1.02 ± 0.11
7,MEVVDPQQLGMFTEGELMSVGMDTFIHRIDSTEVIYQPRRKRAKLIGKYLMGDLLGEGSYGKVKEVLDSETLCRRAVKILKKKKLRRIPNGEANVKKEIQLLRRLRHKNVIQLVDVLYNEEKQKMYMVMEYCVCGMQEMLDSVPEKRFPVCQAHGYFCQLIDGLEYLHSQGIVHKDIKPGNLLLTTGGTLKISDLGVAEALHPFAADDTCRTSQGSPAFQPPEIANGLDTFSGFKVDIWSAGVTLYNITTGLYPFEGDNIYKLFENIGKGSYAIGGDCGPPLSDLLKGMLEYEPAKRFSIRQIRQHSWFRKKHPPAEAPVPIPPSPDTKDRWRSMTVVPYLEDLHGADEDEDLFDIEDDIIYTQDFTVPGQVPEEEASHNGQRRGLPKAVCMNGTEAAQLSTKSRAEGRAPNPARKACSASSKIRRLSACKQQ [P275G],1.14 ± 0.41
